The text below walks through data of US6613329.

Experiment [1] has as its target Crotalus durissus terrificus venom. Nature of the experiment: ELISA, venom-coated wells; 1:5.
Experiment [2] has the same target. Nature of the experiment: ELISA, venom-coated wells; 1:25. (An ELISA detects its analyte on a solid surface through an enzyme-linked reagent.)
Experiment [3] has the same target. Nature of the experiment: ELISA, venom-coated wells; 1:125.
Experiment [4] shares this target. Put plainly: ELISA, venom-coated wells; 1:625.
Experiment [5] has the same target. Nature of the experiment: ELISA, venom-coated wells; 1:3125.
Experiment [6] has the same target. Put plainly: ELISA, venom-coated wells; 1:62,500.
The target is the same in experiment [7]. Nature of the experiment: ELISA, venom-coated wells; 1:312,500.
Experiment [8] has the same target. Nature of the experiment: ELISA, venom-coated wells (5 µg/ml); 1:5.
The target is the same in experiment [9]. Nature of the experiment: ELISA, venom-coated wells (5 µg/ml); 1:25.
Experiment [10] shares this target. Put plainly: ELISA, venom-coated wells (5 µg/ml); 1:125.
For experiment [11] the target is unchanged. Put plainly: ELISA, venom-coated wells (5 µg/ml); 1:625.
The target is the same in experiment [12]. Nature of the experiment: ELISA, venom-coated wells (5 µg/ml); 1:3125.
Experiment [13] has the same target. Put plainly: ELISA, venom-coated wells (5 µg/ml); undiluted.

“preimmune chicken IgY (PEG prep) (antibody)”: the ELISA absorbance is < 0 absorbance in experiment [1]; 0.016 absorbance in experiment [2]; < 0 absorbance in [3]; < 0 absorbance in [4]; < 0 absorbance in [5]; < 0 absorbance in [8]. For the same substance, the ELISA absorbance is 0 absorbance in experiment [9]; 0.003 absorbance in experiment [10]; 0 absorbance in [11]; 0.002 absorbance in [12]; 0.003 absorbance in [13]. Further, the ELISA absorbance (absorbance (412 nm filter)) in experiment [6] was 0.001; in experiment [7], 0.01.
